# Measurements: patent US20160257751A1 (SORRENTO THERAPEUTICS, published 2016)
# Biological target: T1, human CD47 (human, UniProt Q08722 19-139, limits assumed, biotinylated in the ELISAs (site not stated))
# T1 construct: also called biotinylated CD47; CD47 receptor
# Assay: SPR (BIACORE)
# T1 sequence (Q08722 19-139 limits assumed): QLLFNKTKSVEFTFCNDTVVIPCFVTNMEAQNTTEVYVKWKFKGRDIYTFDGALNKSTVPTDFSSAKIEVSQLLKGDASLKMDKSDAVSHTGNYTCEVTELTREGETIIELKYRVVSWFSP
Binder,Kd [nM],koff [s⁻¹],kon [M⁻¹ s⁻¹]
"C47A8 (antibody, V domains shown, also called CD47A8) VH: QVQLVQSGAEVKKPGASVKVSCKASGYTFTSYYMHWVRQAPGQGLEWMGIINPSGGSTSYAQKFQGRVTMTRDTSTSTVYMELSSLRSEDTAVYYCARSTLWFSEFDYWGQGTLVTVSS VL: QSVLTQPSSVSASPGQSITISCSGTSSDVGGHNYVSWYQQHPGKAPKLMIYDVTKRPSGVPDRFSGSKSGNTASLTVSGLQAEDEADYYCCSYAGSRVYVFGTGTKLTVL",82.3,0.047,576000
"C47A8-CQ (antibody, V domains shown) VH: QVQLVQSGAEVKKPGASVKVSCKASGYTFTSYYMHWVRQAPGQGLEWMGIINPSGGSTSYAQKFQGRVTMTRDTSTSTVYMELSSLRSEDTAVYYCARSTLWFSEFDYWGQGTLVTVSS VL: QSVLTQPSSVSASPGQSITISCSGTSSDVGGHNYVSWYQQHPGKAPKLMIYDVTKRPSGVPDRFSGSKSGNTASLTVSGLQAEDEADYYCQSYAGSRVYVFGTGTKLTVL",156,0.02,129000
"C47B10 (antibody, V domains shown, lambda light chain (captured with anti-human lambda); also called CD47B10) VH: QVQLVQSGAEVKKPGASVKVSCKASGYTFTSYYMHWVRQAPGQGLEWMGIINPSGGSTSYAQKFQGRVTMTRDTSTSTVYMELSSLRSEDTAVYYCARSTLWFSEFDYWGQGTLVTVSS VL: QSVLTQPASVSGSPGQSISISCTGTSSDVGGHNYVSWYQQHPGKAPKLMIYDVRNRPSGVSNRFSGSKSGSTASLTISGLQTEDEADYYCNSYTGSRTYVFGSGTKLTVL",12.1,0.00129,106000
"C47A8-CS (antibody, V domains shown) VH: QVQLVQSGAEVKKPGASVKVSCKASGYTFTSYYMHWVRQAPGQGLEWMGIINPSGGSTSYAQKFQGRVTMTRDTSTSTVYMELSSLRSEDTAVYYCARSTLWFSEFDYWGQGTLVTVSS VL: QSVLTQPSSVSASPGQSITISCSGTSSDVGGHNYVSWYQQHPGKAPKLMIYDVTKRPSGVPDRFSGSKSGNTASLTVSGLQAEDEADYYCSSYAGSRVYVFGTGTKLTVL",156,0.034,215000
